Experimental data taken from patent US9068000B2, “Monoclonal antibodies for enhancing or inhibiting insulin-like growth factor-I” (The University of North Carolina at Chapel Hill, priority 2004, dated 2015).
No end group written: not given here.

Legend:
IGF-I = IGF-I biologic actions (DNA synthesis, cell migration, protein synthesis); type: cell-based
Method: Cell Replication. Smooth muscle and/or endothelium are plated at relatively low density, 10^4/cm^2 in low serum (0.2%) containing medium. 24 hr after plating, cells are quiesced in 0.2% platelet poor plasma containing medium. 24 hr later the cultures are exposed to increasing concentrations of IGF-I between 0 and 100 ng/ml and the β3 agonists or antagonists. After 48 hr, the cell cultures are stained with trypan blue and the cell number is determined by manual counting. If β3 is occupied by an agonist then there is at least a 2 fold increase in cell number over this time period. Whereas if an antagonist is added there is often less than 20% increase in cell number.
Cell Migration. Confluent quiescent smooth muscle or endothelial cell cultures are wounded with a razor blade as described in Maile L A, Imai Y, Clarke J B, Clemmons D R, J. Biol. Chem., 277:1800-1805 (2002). The wounds are examined to determine that a straight edge has been obtained and there are no grooves in the plate. At least five areas that are correctly wounded are then identified with a color marker. IGF-I is added at concentrations of either 50 or 100 ng/ml and various concentrations of the angonists or antagonists are added to at least duplicate cultures. After 72 hr the number of cells that have migrated at least 50 microns from the wound edge are determined and counted following staining with methylene blue. […]

IGF-I receptor = assay: Activation of the IGF-I receptor by IGF-I; type: cell-based
Excerpt: (§1) Modification of IGF-I actions. […] These assays include but are not totally limited to the following: β3 subunit phosphorylation, β3 binding to SHPS-1, and integrin associated protein (IAP) as a complex, the association of IAP with SHPS-1, SHPS-1 phosphorylation and Shc recruitment to SHPS-1, Shc phosphorylation, stimulation of DNA synthesis and cell replication or cell migration. Ligands that bind to β3 through the cysteine loop domain often induce both conformational changes and β3 phosphorylation. Similarly, stimulation of β3 phosphorylation can induce a conformational change in β3 secondarily. β3 phosphorylation is measured by applying the compound that binds to β3 to smooth muscle and endothelial cells in culture. […] The lysates are either analyzed directly by immunoblotting for β3 to measure […] or immunoprecipitated with an anti β3 antibody and then immunoblotted for phosphotyrosine. Immunoblotting is analyzed following separation of the proteins contained in 30 μl of cell lysate by SDS polyacrylamide gel electrophoresis (SDS-PAGE). […] The amount of phosphorylated β3 is then determined by SDS-PAGE followed by immunoblotting with a monoclonal anti-phosphotyrosine antibody (PY99) (Ling Y, Maile L A, Clemmons D R, Mol Endocrinol, 17:1824-1833 (2003)).

β3 phosphorylation = assay: β3 phosphorylation, SHP-2 transfer and enhancement of IGF-I receptor activation; type: cell-based
Excerpt: as §1

αVβ3 integrin = αVβ3 integrin (Homo sapiens, UniProt P05106); assay: Binding of peptides/ligands to the cysteine loop region of αVβ3
Excerpt: As noted above, the agonists bind to a specific region on the αVβ3 integrin receptor that has not been identified previously as a region that would result in receptor activation. All agonists that we have determined to bind in this region contain a region of sequence that is commonly termed a heparin binding domain. This heparin binding domain is present in 5 ligands that we have found to date that bind to this region of αVβ3. The documentation that they bind to a specific region of αVβ3 has been provided by two types of experiments. First we have a polyclonal antibody that is known to react with this region of αVβ3, which is the region of the β3 subunit that is located between amino acids at positions 177 and 183.
A more definitive experiment was conducted in which the identical region of the β1 integrin was substituted by mutagenesis for this […] amino acid region within β3. […] Binding assays were then conducted using these ligands.

Chain of αVβ3 integrin (P05106 27-788): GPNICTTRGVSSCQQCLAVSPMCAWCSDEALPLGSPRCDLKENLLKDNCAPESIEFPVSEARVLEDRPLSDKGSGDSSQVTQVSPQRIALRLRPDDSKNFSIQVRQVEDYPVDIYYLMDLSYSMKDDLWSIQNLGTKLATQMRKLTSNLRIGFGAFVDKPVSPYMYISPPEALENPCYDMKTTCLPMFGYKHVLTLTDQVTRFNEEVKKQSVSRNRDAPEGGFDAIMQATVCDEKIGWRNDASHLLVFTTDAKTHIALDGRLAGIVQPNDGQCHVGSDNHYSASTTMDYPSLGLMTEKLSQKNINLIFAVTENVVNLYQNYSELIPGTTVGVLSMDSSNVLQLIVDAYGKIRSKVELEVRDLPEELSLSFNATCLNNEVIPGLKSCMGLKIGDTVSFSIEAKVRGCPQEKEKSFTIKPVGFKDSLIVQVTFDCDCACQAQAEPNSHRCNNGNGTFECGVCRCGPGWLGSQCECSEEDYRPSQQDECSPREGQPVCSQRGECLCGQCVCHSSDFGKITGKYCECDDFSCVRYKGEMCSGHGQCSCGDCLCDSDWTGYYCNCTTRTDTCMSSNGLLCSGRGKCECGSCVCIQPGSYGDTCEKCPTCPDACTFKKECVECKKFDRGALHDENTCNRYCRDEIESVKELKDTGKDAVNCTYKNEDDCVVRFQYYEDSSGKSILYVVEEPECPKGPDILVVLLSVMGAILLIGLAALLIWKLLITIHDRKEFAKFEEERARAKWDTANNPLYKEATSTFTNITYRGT
Chain of αVβ3 integrin (P06756 31-889 partner limits assumed): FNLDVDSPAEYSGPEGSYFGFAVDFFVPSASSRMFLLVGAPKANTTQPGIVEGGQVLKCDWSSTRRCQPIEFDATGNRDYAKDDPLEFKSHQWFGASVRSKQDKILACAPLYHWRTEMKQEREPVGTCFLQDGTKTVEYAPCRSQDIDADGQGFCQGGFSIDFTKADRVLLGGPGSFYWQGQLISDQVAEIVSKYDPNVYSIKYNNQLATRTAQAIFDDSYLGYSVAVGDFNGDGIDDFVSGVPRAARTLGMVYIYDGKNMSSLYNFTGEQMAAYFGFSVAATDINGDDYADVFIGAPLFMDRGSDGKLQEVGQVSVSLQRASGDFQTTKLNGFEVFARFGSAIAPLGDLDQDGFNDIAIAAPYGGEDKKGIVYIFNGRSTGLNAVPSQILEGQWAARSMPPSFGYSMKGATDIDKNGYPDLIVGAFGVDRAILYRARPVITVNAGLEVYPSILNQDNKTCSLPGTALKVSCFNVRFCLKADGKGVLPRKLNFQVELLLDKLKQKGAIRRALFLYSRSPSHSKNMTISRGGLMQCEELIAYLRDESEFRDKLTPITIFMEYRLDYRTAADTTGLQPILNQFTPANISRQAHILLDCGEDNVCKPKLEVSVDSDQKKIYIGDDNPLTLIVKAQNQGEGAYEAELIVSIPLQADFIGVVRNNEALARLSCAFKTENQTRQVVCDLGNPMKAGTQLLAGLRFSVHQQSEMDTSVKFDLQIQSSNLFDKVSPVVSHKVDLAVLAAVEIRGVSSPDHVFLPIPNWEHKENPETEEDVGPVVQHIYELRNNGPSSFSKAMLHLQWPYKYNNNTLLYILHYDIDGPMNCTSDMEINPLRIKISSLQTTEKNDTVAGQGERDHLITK
Chain of αVβ3 integrin (P06756 891-1048 partner limits assumed): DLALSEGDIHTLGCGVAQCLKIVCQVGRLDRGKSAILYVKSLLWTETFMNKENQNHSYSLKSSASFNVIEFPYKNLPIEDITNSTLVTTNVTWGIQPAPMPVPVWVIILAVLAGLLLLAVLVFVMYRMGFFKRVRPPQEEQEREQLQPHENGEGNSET

| Molecule | binding to αVβ3 / β3 cysteine loop region (αVβ3 integrin) | also measured |
| --- | --- | --- |
| KKQRFRHL (Synthetic IGF-I antagonist) [IGF-I antagonist peptide] |  | inhibitory activity on IGF-I actions in biologic assays (IGF-I): inhibitory activity; inhibition of activation of the IGF-I receptor by IGF-I (IGF-I receptor): approximately 60% |
| KKQRFRHR (AlphaV beta3 binding sequence from vitronectin) |  | stimulation of β3 phosphorylation, SHP-2 transfer to downstream signaling molecules and enhancement of IGF-I receptor activation in response to IGF-I (β3 phosphorylation): full stimulation |
| cyclized peptide containing this sequence: a cyclized peptide containing the sequence KKQRFRHL (also: cyclized, mode and places not given here) |  | inhibitor potency compared with linear KKQRFRHL (IGF-I): more potent inhibitor |
| heparin binding epidermal growth factor | shown to bind |  |
| insulin-like binding protein-5 (RKGFYKRK) [IGFBP-5] | shown to bind |  |
| osteopontin | shown to bind |  |
| vitronectin | shown to bind |  |
| connective tissue growth factor (protein) QNCSGPCRCPDEPAPRCPAGVSLVLDGCGCCRVCAKQLGELCTERDPCDPHKGLFCHFGSPANRKIGVCTAKDGAPCIFGGTVYRSGESFQSSCKYQCTCLDGAVGCMPLCSMDVRLPSPDCPFPRRVKLPGKCCEEWVCDEPKDQTVVGPALAAYRLEDTFGPDPTMIRANCLVQTTEWSACSKTCGMGISTRVTNDNASCRLEKQSRLCMVRPCEADLEENIKKGKKCIRTPKISKPIKFELSGCTSMKTYRAKFCGVCTDGRCCTPHRTTTLPVEFKCPDGEVMKKNMMFIKTCACHYNCPGDNDIFESLYYRKMYGDMA | shown to bind |  |
